[ ]: non-standard residue; d: D form. Arg(Me) = CNC(=N)NCCC[C@H](N)C(=O)O; Dap(CONH2) = NC(=O)NC[C@H](N)C(=O)O; Ala(cPr) = N[C@@H](CC1CC1)C(=O)O; Hyp = O=C(O)[C@@H]1C[C@@H](O)CN1; Cha = N[C@@H](CC1CCCCC1)C(=O)O; Cba = N[C@@H](CC1CCC1)C(=O)O; Dap = NC[C@H](N)C(=O)O
Target: human OT7T175 (metastin receptor) (human) (UniProt Q969F8)
Test: cell-based or functional assay

Sequence of UniProt Q969F8 (Q969F8 whole entry L364H): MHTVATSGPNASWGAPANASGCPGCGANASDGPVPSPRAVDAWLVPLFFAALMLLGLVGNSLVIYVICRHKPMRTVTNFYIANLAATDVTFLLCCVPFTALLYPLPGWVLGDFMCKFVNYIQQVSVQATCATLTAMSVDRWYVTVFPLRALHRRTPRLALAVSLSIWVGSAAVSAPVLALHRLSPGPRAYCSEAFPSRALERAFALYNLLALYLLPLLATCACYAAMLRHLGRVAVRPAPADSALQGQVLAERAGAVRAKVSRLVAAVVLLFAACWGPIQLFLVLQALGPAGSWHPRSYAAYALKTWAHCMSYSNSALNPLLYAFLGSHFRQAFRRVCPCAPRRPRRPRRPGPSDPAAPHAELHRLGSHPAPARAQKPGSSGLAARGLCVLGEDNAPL

Binder	Specific Activity (EC50 of test compound based on EC50 of Metastin (45-54); intracellular calcium, FLIPR) (ratio to EC50 of Metastin (45-54))
Ac-[dY][Hyp][Dap(CONH2)][Dap][Cha]G[Ala(cPr)][Arg(Me)]W-NH2 (SMILES CNC(=N)NCCC[C@H](NC(=O)[C@H](CC1CC1)NC(=O)CNC(=O)[C@H](CC1CCCCC1)NC(=O)[C@H](CN)NC(=O)[C@H](CNC(N)=O)NC(=O)[C@@H]1C[C@@H](O)CN1C(=O)[C@@H](Cc1ccc(O)cc1)NC(C)=O)C(=O)N[C@@H](Cc1c[nH]c2ccccc12)C(N)=O) [des(1)-Ac-[D-Tyr2,Hyp3,Alb4,Dap5,Cha6,Ala(cPr)8,Arg(Me)9,Trp10]MS10]	0.7
Ac-[dY][Hyp][Dap(CONH2)]G[Cha]G[Ala(cPr)][Arg(Me)]W-NH2 (SMILES CNC(=N)NCCC[C@H](NC(=O)[C@H](CC1CC1)NC(=O)CNC(=O)[C@H](CC1CCCCC1)NC(=O)CNC(=O)[C@H](CNC(N)=O)NC(=O)[C@@H]1C[C@@H](O)CN1C(=O)[C@@H](Cc1ccc(O)cc1)NC(C)=O)C(=O)N[C@@H](Cc1c[nH]c2ccccc12)C(N)=O) [des(1)-Ac-[D-Tyr2,Hyp3,Alb4,Gly5,Cha6,Ala(cPr)8,Arg(Me)9,Trp10]MS10]	0.7
Ac-[dY]ENT[Cha]G[Ala(cPr)]RW-NH2 (SMILES CC(=O)N[C@H](Cc1ccc(O)cc1)C(=O)N[C@@H](CCC(=O)O)C(=O)N[C@@H](CC(N)=O)C(=O)N[C@H](C(=O)N[C@@H](CC1CCCCC1)C(=O)NCC(=O)N[C@@H](CC1CC1)C(=O)N[C@@H](CCCNC(=N)N)C(=O)N[C@@H](Cc1c[nH]c2ccccc12)C(N)=O)[C@@H](C)O) [des(1)-Ac-[D-Tyr2,Glu3,Thr5,Cha6,Ala(cPr)8,Trp10]MS10]	0.4
Ac-[dY][Hyp][Dap(CONH2)]A[Cha]G[Ala(cPr)][Arg(Me)]W-NH2 (SMILES CNC(=N)NCCC[C@H](NC(=O)[C@H](CC1CC1)NC(=O)CNC(=O)[C@H](CC1CCCCC1)NC(=O)[C@H](C)NC(=O)[C@H](CNC(N)=O)NC(=O)[C@@H]1C[C@@H](O)CN1C(=O)[C@@H](Cc1ccc(O)cc1)NC(C)=O)C(=O)N[C@@H](Cc1c[nH]c2ccccc12)C(N)=O) [des(1)-Ac-[D-Tyr2,Hyp3,Alb4,Ala5,Cha6,Ala(cPr)8,Arg(Me)9,Trp10]MS10]	0.5

Continued, values first:

Specific Activity (EC50 of test compound based on EC50 of Metastin (45-54); intracellular calcium, FLIPR) (ratio to EC50 of Metastin (45-54))	Binder
0.5	Ac-[dY][Hyp][Dap(CONH2)]S[Cha]G[Ala(cPr)][Arg(Me)]W-NH2 (SMILES CNC(=N)NCCC[C@H](NC(=O)[C@H](CC1CC1)NC(=O)CNC(=O)[C@H](CC1CCCCC1)NC(=O)[C@H](CO)NC(=O)[C@H](CNC(N)=O)NC(=O)[C@@H]1C[C@@H](O)CN1C(=O)[C@@H](Cc1ccc(O)cc1)NC(C)=O)C(=O)N[C@@H](Cc1c[nH]c2ccccc12)C(N)=O) [des(1)-Ac-[D-Tyr2,Hyp3,Alb4,Ser5,Cha6,Ala(cPr)8,Arg(Me)9,Trp10]MS10]
0.5	Ac-[dY][Hyp]NT[Cha]G[Ala(cPr)]RW-NH2 (SMILES CC(=O)N[C@H](Cc1ccc(O)cc1)C(=O)N1C[C@H](O)C[C@H]1C(=O)N[C@@H](CC(N)=O)C(=O)N[C@H](C(=O)N[C@@H](CC1CCCCC1)C(=O)NCC(=O)N[C@@H](CC1CC1)C(=O)N[C@@H](CCCNC(=N)N)C(=O)N[C@@H](Cc1c[nH]c2ccccc12)C(N)=O)[C@@H](C)O) [des(1)-Ac-[D-Tyr2,Hyp3,Thr5,Cha6,Ala(cPr)8,Trp10]MS10]
0.7	Ac-[dY][Hyp]NTFGL[Arg(Me)]W-NH2 (also: Phe5-Gly6 amide bond replaced by CH2S) [des(1)-Ac-[D-Tyr2,Hyp3,Thr5,Phe6Ψ(CH2S)Gly7,Arg(Me)9,Trp10]MS10]
0.7	Ac-[dY][Hyp]NT[Cba]G[Ala(cPr)][Arg(Me)]W-NH2 [des(1)-Ac-[D-Tyr2,Hyp3,Thr5,Ala(cBu)6,Ala(cPr)8,Arg(Me)9,Trp10]MS10]
0.5	Ac-[dY][Hyp]NT[Cha]G[Cba][Arg(Me)]W-NH2 [des(1)-Ac-[D-Tyr2,Hyp3,Thr5,Cha6,Ala(cBu)8,Arg(Me)9,Trp10]MS10]

Source: patent US20110059888A1
